Key:
[1] = molecular target: mononucleosome (calf thymus histone octamer assembled on 601 nucleosome positioning sequence DNA) (bovine (calf thymus))
[2] = molecular target: mononucleosome (calf thymus histone octamer assembled on 601 nucleosome positioning sequence DNA) (bovine (calf thymus)); assay: native gel or EMSA; 2 nM IRDYE-labeled mononucleosome with 50 bp of linker DNA on both ends, 2-fold dilution series of CHD enzyme; EMSA buffer (20 mM Tris HCl pH 8.0, 75 mM NaCl, 5 mM MgCl2), 30 min at 25 °C, 4% native PAGE

| Km of nucleosome-stimulated ATP hydrolysis (nucleosome concentration at half-maximal ATPase activation; mononucleosome with 50-bp linker DNA on both sides) [1] | fold affinity against the nucleosome with only one 100-bp DNA linker [2] | Substance |
| --- | --- | --- |
| 6 nM | – | CHD7 (from UniProt Q9P2D1 1-2997) (enzyme) |
| 55 nM | 2 fold | CHD8 (from UniProt Q9HCK8 1-2581) (enzyme) |

| Substance | Km of nucleosome-stimulated ATP hydrolysis (nucleosome concentration at half-maximal ATPase activation; mononucleosome with 50-bp linker DNA on both sides) [1] | fold affinity against the nucleosome with only one 100-bp DNA linker [2] |
| --- | --- | --- |
| CHD6 (from UniProt Q8TD26 1-2715) (enzyme) | 6 nM | – |

— paper PMC5512084
